Results reported in PMC2670497.

Assays:
[1] = biological target: purified recombinant vimentin protein (UniProt P08670); test: ELISA; 1 ug vimentin immobilised overnight on Immulon 2 HB plates in 0.1 M KPO4 pH 7.0; varying molar concentrations of CPMV, 1 hour, room temperature; detected with anti-CPMV polyclonal antibody; avidity not ruled out
[2] = biological target: surface vimentin on HeLa cells (human (endogenous in HeLa)) (UniProt P08670); test: flow cytometry on cells; cells transfected with pCMV-SPORT6-vimentin or mock-transfected, 24 hours later incubated with wildtype CPMV at 5x10^5 virions per cell for 2 hours; percent CPMV-positive cells; data not shown
[3] = biological target: vimentin expressed from pCMV-SPORT6-vimentin in MFT-16 vim-/- cells (UniProt P08670); test: as above

Cowpea mosaic virus (CPMV) particles, wild type (complex)
EC50 [1]: 3.72 nM
percent of cells CPMV-positive [2]: 5.36%
percent of cells CPMV-positive [3]: 1.21%
